Assay results from PMC3384689 (Biochemistry, 2012).

B1: Thermotoga maritima FliG N-terminal domain construct, residues 1–102 (FliGN) (domain or fragment, UniProt Q9WY63 1-102, looked up)
chain: MPEKKIDGRRKAAVLLVALGPEKAAQVMKHLDEETVEQLVVEIANIGRVTPEEKKQVLEEFLSLAKAKEMISEGGIEYAKKVLEKAFGPERARKIIERLTSS
modifications: 15N, 2H (and 13C) isotope labelling in the NMR experiments
B2: full-length Thermotoga maritima FliG (FliGNMC) (natural protein, UniProt Q9WY63 1-335, looked up)
chain: MPEKKIDGRRKAAVLLVALGPEKAAQVMKHLDEETVEQLVVEIANIGRVTPEEKKQVLEEFLSLAKAKEMISEGGIEYAKKVLEKAFGPERARKIIERLTSSLQVKPFSFVRDTDPVQLVNFLQSEHPQTIAVVLSYLDPPVAAQILGALPEELQTEVLKRIALLERTSPEVVKEIERNLEKKISGFVSRTFSKVGGIDTAAEIMNNLDRTTEKKIMDKLVQENPELADEIRRRMFVFEDILKLDDRSIQLVLREVDTRDLALALKGASDELKEKIFKNMSKRAAALLKDELEYMGPVRLKDVEEAQQKIINIIRRLEEAGEIVIARGGGEELIM
B3: full-length FliG: full-length T. maritima FliGNMC, including a N-terminal 6X-His tag (protein)
chain: B2 chain
modifications: left off: 6X-His, N-terminal, state not stated

Key:
[1] = target: synthetic FliF_(495–532) peptide of Thermotoga maritima FliF (Thermotoga maritima); assay: other fluorescence titration
[2] = target: synthetic FliF_(512–532) peptide of Thermotoga maritima FliF (Thermotoga maritima); assay: other fluorescence titration
[3] = target: the molecule itself; assay: SEC-MALS
[4] = system: full-length FliG; assay: Size-exclusion chromatography / light scattering, full-length FliG; type: physicochemical, T. maritima; settings: SEC / static light scattering / refractive index; ~1 mg/mL, 25 mM Tris, 200 mM NaCl, 0.5 mM EDTA, pH 7.4

Molecule | stoichiometry N [1] | Kd [2] [nM] | stoichiometry N [3] | Calculated Mw of full-length FliG, absence of peptide [4] | Oligomeric state of full-length FliG, absence of peptide [4]
B1 | 1 | 84 | 2 |  | 
B2 |  |  | 2 |  | 
B3 |  |  |  | ≈ 79 kD | tight dimer
